# Assay results taken from the DeepSol protein solubility set.
# Experiment: soluble on expression in E. coli; label from the status in PepcDB or PDB records
row,Sequence,soluble on expression in E. coli
1,MGSDKIHHHHHHMPLCPSCEMKFNSWEDLAKHMDLIANTNSDKSHVMWLNRNISMKRMEVNELANALERFFSTPNSLSMWIRTRFIERFYGDNPHPFIVAMQNPTKGVLLGYVIEHQHFLKNWVKVLSSIVFKTDKDDVLQYELENISVEFIGYNGRPAHYELLLRMGEALGMPREKILSTQPLPSTQSAIKTWRKIAESKTWLETMASMHSLELVADRSLVKYGAKLPYFNPEILSSDEYPQAVKDFLREGYEADVSHAGEALEMVEKYTEEMEMKEQVQITVLKSFDAFSKYLLARLERGFEIEPSLLKRVIK,not soluble
2,MTLIEPDMNLRMPDISTTVETLNLISKMEAQKENIRSVIAPEHKHKYKDIENGLKGEEKVLIEQMAQHCEAFKANFKGAAQGDWVKSAMSEIDSIKDDLKKINSLEHHHHHH,not soluble
3,MAEEVRAFSLPSRRVVLQDEKMEQDEEHSSPTRSTSSNSDEPTETIESGDQFDVNEPIPTIETLEPVIISAASVQQLPAISLSGNNAQRTLWIGDVPTDWTEETLSQVFTECGHAPYKVKRVYVKDELKGYCFIEFITFDEARQTLYDLNGNRIPGFKDIRFNLCFANDSYNPNSEFNLHVSSVPDDMADAELYRIFDKYQSCRGAKMFRFVDGSSKGSGFVRFGNQTDQQMALVEMHRTKVGGCRIILKLAGSRGERLDRGESRQFKSQRNDRRRDEKSGQYRNGTAVPQQTQVYDAYGNPVVVPVDKNIYGTDHPWGPFPDDPDLDSIIGLDLLTTKYRPQIANKRLMIDTDQFMLDLESSRWSSIAFNTNIKKEDFEKRITDNPWTAVP,not soluble
4,MGSDKIHHHHHHMFRSMRTSHERVHFTAKARRASTMAAPQNKVIVTCAVTGGIHTPTMSPHLPITARDIEDESVAAAEAGAAIVHLHARKPENGQPSQDPALFLEFLPRIAARSDVVINLTTGGAPNMLVEERLQPALQLKPEVASLNMGSMNFGLYPMIARHKTFKYDWERPYLEGSEDRVFRNTFKEIRYILESCADNGTRFEIECYDTSHLYTAAHFIDRGILKPPFFIQSVFGLLGGIGTHPDDVMHMRRTAERLFGKDYYWSVLGAGRSQMPIASMAAAMGGNVRVGLEDSLWEDRGRLSRSNADQVRRVVGILKSLNLEVATPDEARDMLQLKGRDAVAF,not soluble
5,MTQTNNPLHGITLETIITQLVEHYGWEELGARIKIRCFTEAPSIKSSLRFLRKTDWAREKVEYLYLKTNKLPLPAAKSIQAPAKEPSKKSAPKPNSKPTQTKVVTPTPAVEGQVNSHIWGKRDLEHHHHHH,soluble
6,MVKSPGASPERKKVKIDVYPMVVKDPQAREINETLLFDYTTALSSFETPTEEQLLVSEGDAFRHHPNEDVEQYFRASAQWGVPAIAWNIVRPAFLWKLEFCITEFMNVEKKKKEAAANSAQANSEVEKIAESPVKEKLSILGHKVNLIKTTPVVFSTEESMEFVLSKAKSFDGFPFTWQRLCELLIEPMRHYNTIDKFLRAVDKVINVVTTINENGGRSFGDWDLPNSQQFHLENTFFGVVDEVEMMELEKVKHDFQSSSSPSEEPLDMSQKSMPAPRVSTASPDPPSFVLPTARSPINTSPSSSPKASSPKASSPKAASPVSSPKSPVIQDQSPKKEDAKEGEGEIVHEEEMPEETLEVETKNEVNKEDADMEIGAE,not soluble
7,LMGDDKVKKEVGRASWKYFHTLLARFPDEPTPEEREKLHTFIGLYAELYPCGECSYHFVKLIEKYPVQTSSRTAAAMWGCHIHNKVNEYLKKDIYDCATILEDYDCGCSDSDGKRVS,soluble
8,MMRKLKTLPPTLRDKNRYIAFEIISDGDFTKDEVKELIWKSSLEVLGETGTAIVKPWLIKFDPNTKTGIVRSDREYVEYLRFALMLVSEFNGKRLIIRTLGVSGTIKRLKRKFLAKYGWK,soluble
9,MGSDKIHHHHHHMTTYRTVSIDGLDIFYREAGSRNNPTILLLHGFPTSSHMFRNLIPALADKFHLVAPDYPGYGNSSMPTVNEFDYTFDNLAEIVEKFIAAIALKKYSLYVMDYGAPIGYRIAAKYPERVQSLIVQNGNAYEEGLREFWEPIKAYWQERSPENAEKLKYLVTLEATKWQYTNGVRNLEAISPDTWTMDQHFLDRPGNDEIQLALLYSYGTNPLLYPQWQEYFRNYQPPTLIVWGKNDYIFPADGAYPYQRDLKDVEFHLLDTGHFALEEDGDAIANYIDQFLTSRLQSIPV,not soluble
10,MVGVRMTKKVLIVEDNELNMKLFHDLLEAQGYETLQTREGLSALSIARENKPDLILMDIQLPEISGLEVTKWLKEDDDLAHIPVVAVTAFAMKGDEERIREGGCEAYISKPISVVHFLETIKRLLERQPA,soluble
